Reference: paper PMC7774954 (PLoS ONE, 2020)
Where no end group is shown, it is not given here. The star is where a group is joined. Biotin = O=C1N[C@H]2[C@H](CS[C@H]2CCCCC(=O)*)N1; TTDS = NCCCOCCOCCOCCCNC(=O)CCC(=O)*

T1: PARD3B-1, first PDZ domain of PARD3B (human, UniProt Q8TEW8 201-289)
T1 construct: PARD3B, human, PDZ domain 1; not shown: His6, N-terminal, kept; MBP, N-terminal, kept
T1 sequence (looked up): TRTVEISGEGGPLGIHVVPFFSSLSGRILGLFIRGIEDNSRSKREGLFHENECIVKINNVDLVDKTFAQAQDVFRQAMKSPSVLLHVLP

T2: PDZD7-3, third PDZ domain of PDZD7 (human, UniProt Q9H5P4 862-934)
T2 construct: PDZD7, human, PDZ domain 3; not shown: His6, N-terminal, kept; MBP, N-terminal, kept
T2 sequence (looked up): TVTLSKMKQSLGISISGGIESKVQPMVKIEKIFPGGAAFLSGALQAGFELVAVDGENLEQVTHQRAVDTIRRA

T3: NHERF1-1 (human, UniProt O14745 14-94)
T3 construct: PDZ domain number 1 of human NHERF1; also called NHERF1 PDZ dom 1; first PDZ domain of the NHERF1 protein; source: E. coli, in crude cell lysate; not shown: His, N-terminal, kept
T3 sequence (looked up): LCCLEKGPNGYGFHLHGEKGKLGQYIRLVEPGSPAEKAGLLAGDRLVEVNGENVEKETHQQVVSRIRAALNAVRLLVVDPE

T4: PTPN13-2 (human, UniProt Q12923 1368-1452)
T4 construct: PDZ domain number 2 of human PTPN13; also called PTPN13 PDZ dom 2; source: E. coli, in crude cell lysate; not shown: His, N-terminal, kept
T4 sequence (looked up): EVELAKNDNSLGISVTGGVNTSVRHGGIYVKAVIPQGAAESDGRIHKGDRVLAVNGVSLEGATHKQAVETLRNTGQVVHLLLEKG

B1: PTEN_Ac, 11-mer PTEN PDZ-binding motif peptide acetylated at K402 (peptide)
peptide: {Biotin-TTDS}-DEDQHTQITK(Ac)V
notes: PTEN, human, canonical isoform I, residues 393-403, K402 acetylated (acK); source: synthetic peptide (Chemical Peptide Synthesis Service of the IGBMC)
B2: PTEN_KR (peptide, UniProt P60484 393-403, looked up)
peptide: {Biotin-TTDS}-DEDQHTQITRV
notes: also called K402R mutant; source: synthetic peptide (Chemical Peptide Synthesis Service of the IGBMC, Fmoc)
B3: PTEN_Ac (peptide, UniProt P60484 393-403, looked up)
peptide: {Biotin-TTDS}-DEDQHTQITK(Ac)V
notes: also called acetylated version of PTEN_11; acetylated peptide; source: synthetic peptide (Chemical Peptide Synthesis Service of the IGBMC, Fmoc)
B4: PTEN_11, 11-mer wild-type PDZ-binding motif peptide of PTEN (peptide)
peptide: {Biotin-TTDS}-DEDQHTQITKV
notes: Labelled 'PTEN' in Supp; source: synthetic peptide (Chemical Peptide Synthesis Service of the IGBMC)
B5: PTEN_KR, 11-mer PTEN PDZ-binding motif peptide with K402R (peptide)
peptide: {Biotin-TTDS}-DEDQHTQITRV
notes: PTEN, human, canonical isoform I, residues 393-403 with K402R; source: synthetic peptide (Chemical Peptide Synthesis Service of the IGBMC)
B6: PTEN_11 (peptide, UniProt P60484 393-403, looked up)
peptide: {Biotin-TTDS}-DEDQHTQITKV
notes: also called 11-mer wild-type PTEN PBM peptide; native PTEN_11 PBM; source: synthetic peptide (Chemical Peptide Synthesis Service of the IGBMC, Fmoc)
B7: PTEN_13, 13-mer wild-type PDZ-binding motif peptide of PTEN (peptide)
peptide: {Biotin-TTDS}-PFDEDQHTQITKV
notes: source: synthetic peptide, bought: JPT Innovative Peptide Solutions (70%-80% purity)

Tests used:
[1] = biological target: T1, PARD3B-1, first PDZ domain of PARD3B; assay: fluorescence polarisation; direct: N-terminally fluorescein-labelled PBM peptide (tracer) with increasing amounts of MBP-PDZ; 384-well plates; triplicate; direct binding model (ProFit); conditions: both partners purified
[2] = biological target: T2, PDZD7-3, third PDZ domain of PDZD7; assay: as above; conditions: both partners purified
[3] = biological target: T5, GRID2IP-2, second PDZ domain of GRID2IP (human, UniProt A4D2P6 279-356); assay: as above; conditions: both partners purified
T5 construct: GRID2IP, human, PDZ domain 2; not shown: His6, N-terminal, kept; MBP, N-terminal, kept

[4] = biological target: T5, GRID2IP-2, second PDZ domain of GRID2IP; assay: fluorescence polarisation; competitive: pre-formed complex of PDZ domain (>60-80% complex) and 50 nM fluorescent tracer peptide, increasing amount of unlabeled PTEN peptide (8 concentrations); 20 mM HEPES pH 7.5, 150 mM NaCl, 0.5 mM TCEP, 0.01% Tween 20; triplicate; competitive binding model (ProFit); apparent; conditions: both partners purified
[5] = biological target: T6, MAGI2-2, second PDZ domain of MAGI2 (human, UniProt Q86UL8 426-510); assay: as above; conditions: both partners purified
T6 construct: not shown: His6, N-terminal, kept; MBP, N-terminal, kept

[6] = biological target: T2, PDZD7-3, third PDZ domain of PDZD7; assay: as above; conditions: both partners purified
[7] = biological target: T7, DLG1-2 (human, UniProt Q12959 319-405); assay: holdup assay; biotinylated PBM peptide saturating streptavidin resin (biotin resin as reference); tag-PDZ at 4 uM in crude E. coli lysate, 15 min, filtration, free tag-PDZ by capillary electrophoresis; singlicate; BI cut-off 0.20; BI converted into KD with the peptide concentration back-calculated from FP; conditions: one partner purified
T7 construct: PDZ domain number 2 of human DLG1; also called DLG1 PDZ dom 2; source: E. coli, in crude cell lysate; not shown: His, N-terminal, kept

[8] = biological target: T8, NHERF2-1 (human, UniProt Q15599 11-90); assay: as above; conditions: one partner purified
T8 construct: PDZ domain number 1 of human NHERF2; also called NHERF2 PDZ dom 1; source: E. coli, in crude cell lysate; not shown: His, N-terminal, kept

[9] = biological target: T9, MAGI3-2 (human, UniProt Q5TCQ9 410-492); assay: as above; conditions: one partner purified
T9 construct: PDZ domain number 2 of human MAGI3; also called MAGI3 PDZ dom 2; source: E. coli, in crude cell lysate; not shown: His, N-terminal, kept

[10] = biological target: T10, NHERF2-2 (human, UniProt Q15599 150-230); assay: as above; conditions: one partner purified
T10 construct: PDZ domain number 2 of human NHERF2; also called NHERF2 PDZ dom 2; source: E. coli, in crude cell lysate; not shown: His, N-terminal, kept

[11] = biological target: T3, NHERF1-1; assay: as above; conditions: one partner purified
[12] = biological target: DLG4-1 (human, UniProt P78352 65-151); assay: as above; conditions: one partner purified
[13] = biological target: T11, MAGI2-3 (human, UniProt Q86UL8 605-683); assay: as above; conditions: one partner purified
T11 construct: PDZ domain number 3 of human MAGI2; also called MAGI2 PDZ dom 3; source: E. coli, in crude cell lysate; not shown: His, N-terminal, kept

[14] = biological target: T12, PARD3-3 (human, UniProt Q8TEW0 590-677); assay: as above; conditions: one partner purified
T12 construct: the text says PARD3-1; also called PARD3 PDZ dom 3; source: E. coli, in crude cell lysate; not shown: His, N-terminal, kept

[15] = biological target: T13, MAGI2-2 (human, UniProt Q86UL8 426-510); assay: as above; conditions: one partner purified
T13 construct: PDZ domain number 2 of human MAGI2; also called MAGI2 PDZ dom 2; source: E. coli, in crude cell lysate; not shown: His, N-terminal, kept

[16] = biological target: T4, PTPN13-2; assay: as above; conditions: one partner purified
[17] = biological target: T14, MAGI1-3 (human, UniProt Q96QZ7 643-721); assay: as above; conditions: one partner purified
T14 construct: PDZ domain number 3 of human MAGI1; also called MAGI1 PDZ dom 3; source: E. coli, in crude cell lysate; not shown: His, N-terminal, kept
T14 sequence (Q96QZ7 643-721): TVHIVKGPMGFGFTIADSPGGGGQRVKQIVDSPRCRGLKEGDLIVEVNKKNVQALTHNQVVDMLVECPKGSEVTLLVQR

T11 sequence (Q86UL8 605-683): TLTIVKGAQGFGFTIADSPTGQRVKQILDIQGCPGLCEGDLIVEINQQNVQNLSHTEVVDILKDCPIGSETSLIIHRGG
T13 sequence (Q86UL8 426-510): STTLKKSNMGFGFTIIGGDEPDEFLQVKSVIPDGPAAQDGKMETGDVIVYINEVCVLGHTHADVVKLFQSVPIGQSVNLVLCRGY
T5 sequence (A4D2P6 279-356): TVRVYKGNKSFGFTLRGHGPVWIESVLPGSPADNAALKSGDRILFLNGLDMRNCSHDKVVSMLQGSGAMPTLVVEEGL
Chain of DLG4-1 (P78352 65-151, looked up): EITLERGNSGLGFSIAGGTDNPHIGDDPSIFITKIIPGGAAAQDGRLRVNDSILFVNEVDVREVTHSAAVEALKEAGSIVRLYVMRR
T6 sequence (Q86UL8 426-510): as the sequence (Q86UL8 426-510) above
T9 sequence (Q5TCQ9 410-492): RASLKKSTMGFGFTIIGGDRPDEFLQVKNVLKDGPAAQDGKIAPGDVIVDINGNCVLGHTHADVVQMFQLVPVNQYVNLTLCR
T10 sequence (Q15599 150-230): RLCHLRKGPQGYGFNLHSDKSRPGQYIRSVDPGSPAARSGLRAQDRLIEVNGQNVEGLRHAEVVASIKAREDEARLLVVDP
T12 sequence (Q8TEW0 590-677): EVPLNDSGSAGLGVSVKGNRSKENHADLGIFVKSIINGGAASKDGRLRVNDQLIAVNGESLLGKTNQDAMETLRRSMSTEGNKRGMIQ
T8 sequence (Q15599 11-90): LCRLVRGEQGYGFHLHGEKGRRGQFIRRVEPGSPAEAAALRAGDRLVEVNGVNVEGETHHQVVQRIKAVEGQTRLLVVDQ

Binder | Kd [4] | Kd [6] | Kd [11] | Kd [12] | Kd [13] | Kd [15] | Kd [17] | further results
fluorescein-KLPSTTL (source: synthetic peptide) [fRSK1, fluorescein-labelled RSK1 PBM peptide] | – | – | – | – | – | – | – | Kd [1]: 33.7 µM; Kd [2]: 1.57 µM; Kd [3]: 5.43 µM
B1 | 36.7 µM | 2.84 µM | – | – | – | – | – | Kd [5]: 66.4 µM
B2 | – | – | 4 µM | 81 µM | 21 µM | 29 µM | 15 µM | Kd [7]: 71 µM; Kd [8]: 120 µM; Kd [9]: 29 µM; Kd [10]: 21 µM; Kd [14]: 56 µM; Kd [16]: 153 µM
B3 | – | – | 14 µM | 155 µM | 15 µM | 56 µM | 10 µM | –
B4 | 87 µM | 20.1 µM | – | – | – | – | – | –
B5 | 51.6 µM | 8.2 µM | – | – | – | – | – | –
B6 | – | – | 33 µM | 293 µM | 47 µM | 152 µM | 30 µM | –
B7 | – | 5.76 µM | – | – | – | – | – | Kd [5]: 79.7 µM
